The series in a line: label from the status in PepcDB records.
For the sequence “MIKVKSPGRVNLIGEHTDYTYGYVMPMAINLYTKIEAEKHGEVILYSEHFGEERKFSLNDLRKENSWIDYVKGIFWVLKESDYEVGGIKGRVSGNLPLGAGLSSSASFEVGILETLDKLYNLKLDSLSKVLLAKKAENEFVGVPCGILDQFAVVFGREGNVIFLDTHTLDYEYIPFPKDVSILVFYTGVRRELASSEYAERKHIAEESLKILGKGSSKEVREGELSKLPPLHRKFFGYIVRENARVLEVRDALKEGNVEEVGKILTTAHWDLAKNYEVSCKELDFFVERALKLGAYGARLTGAGFGGSAIALVDKEDAETIGEEILREYLKRFPWKARHFIVEPSDGVGI”, the protein production entry was “not failed”.

Turning to “MAAVWQQVLAVDARYNAYRTPTFPQFRTQYIRRRSQLLRENAKAGHPPALRRQYLRLRGQLLGQRYGPLSEPGSARAYSNSIVRSSRTTLDRMEDFEDDPRALGARGHRRSVSRGSYQLQAQMNRAVYEDRPPGSVVPTSAAEASRAMAGDTSLSENYAFAGMYHVFDQHVDEAVPRVRFANDDRHRLACCSLDGSISLCQLVPAPPTVLRVLRGHTRGVSDFAWSLSNDILVSTSLDATMRIWASEDGRCIREIPDPDSAELLCCTFQPVNNNLTVVGNAKHNVHVMNISTGKKVKGGSSKLTGRVLALSFDAPGRLLWAGDDRGSVFSFLFDMATGKLTKAKRLVVHEGSPVTSISARSWVSREARDPSLLINACLNKLLLYRVVDNEGTLQLKRSFPIEQSSHPVRSIFCPLMSFRQGACVVTGSEDMCVHFFDVERAAKAAVNKLQGHSAPVLDVSFNCDESLLASSDASGMVIVWRREQK”, the protein production entry was “failed”.

Take “MLSTSRSRFIRNTNESGEEVTTFFDYDYGAPCHKFDVKQIGAQLLPPLYSLVFIFGFVGNMLVVLILINCKKLKCLTDIYLLNLAISDLLFLITLPLWAHSAANEWVFGNAMCKLFTGLYHIGYFGGIFFIILLTIDRYLAIVHAVFALKARTVTFGVVTSVITWLVAVFASVPGIIFTKCQKEDSVYVCGPYFPRGWNNFHTIMRNILGLVLPLLIMVICYSGILKTLLRCRNEKKRHRAVRVIFTIMIVYFLFWTPYNIVILLNTFQEFFGLSNCESTSQLDQATQVTETLGMTHCCINPIIYAFVGEKFRRYLSVFFRKHITKRFCKQCPVFYRETVDGVTSTNTPSTGEQEVSAGL”: the protein production result is listed as “failed”.

“MEEPEFQAYVGPRPFEQEDKFIFFGRDREARDLLSLVIAHNLVLVYAQSGAGKTSLINAGLIPLLKENRFEVFPVARVKGTPLRNIKTDEISNIYVLNTLTSWAEDEYDVERLTKMKLVDFLNEQERLQDEDGIPLPRAVIFDQFEEIFSLYQDRWKDREGFFEQISAALETDPLLRVVFVIREDFIAQLDPYVELLPERLRTRFHIERLRREAALLAIKEPLRDTGRSFAEGVAEKLVDDLLKIRVETTPGETTEVTGEFIEAVQLQVVCQNLWRELPPDVKQITFHHLKTYGNVEQELYRFYEEAIRTAAATAHIDEESLRRLFGEVLITTMGTRGMVYRAQESTGGIPNTAIDVLESMHLIRAEWRAGARWYELTHDGFIKPILSSNRVFNDELAEKERAEKERIEKERIEKEWAEKEWAEKERLEKERAEKERLEKELRAEKELAESKQLFYKRLAAISFLAILLALVAVFEWHQAKENAEEARASDLNLNSALLQGDPRNLDKSVLLAIESLKIHITSTADHLIRQGLLSMPHRVVILKHYSDVNNVVFSPDGKYVATASNDNTSRLWDVSTGKQIFVLNHTDPVRNVVFSPDGKYVATASADKTAGVWNTTTGEGISVLNHTGRVNNVVFSPDGKYIATASDDNTSRLWDTATGKQIFVLNQTDPVRNVVFSPDGKYIATASADNTSRLWDTTTGKQIFDMKHDGPVNIVVFSPDGKYVATASADKKARLWNATTGKKIFDMKHDSGINTVVFSPDGKYIVTASDDKTAGVWNTTTGKKIFDMKHDGSVNTVVFSPDGKYIATASADNTSRLWDTATGEKIFFLNHYGWVNTVVFSPDGKYVATASADKTAHLWDVSTGKQISYLRHDSGVNNVVFGPDGKYVVTASADKTADVWNTTTGEKIFVLNHTGRVNNAVFSPDGKYIATASADNTSRLWDTTTGKQIFVLNQTDPVRNVVFSPDRKYIATASDDNTSRLWDTATGKQILVLNHDGPVNTVVFSSDGKYIATASDDNTSRLWDTATGEEIFVLNHTDRVNNVVFSPDGKYIATAGDDNTSRLWGTATGEKIFDMKHDGPVNNVVFSPDGKYVATAGYDNTACLWDTATGEKIFVLNHAGRVNTVVFSPDGKYIATASADKARLWNATTGKQISYLRHDSGVNNVVFSPDGKYIATASVDKTARLWTAKLWISDTEDLIDEANNRLTRNLKPEEWKEYMGDKPYHKRFPNLP”: the protein production result is “failed”.

Turning to “MKYLPLYPILARYPFLRIASRVFSFNIEDELRKFLDTVEAAKRIVDKAIDGRVEYDRFTDESEFFCLGCEENCYDCQKRGTLEGCDLCMGCFENCSLYYPREAVERFYTNAKLSLLTYIASRMIVSAMEDWVRMRYAVNEASYYSRLLREDVEESGKEPIVRLVAIDLGAKLKGWKMHVSTFVRVSARIKDDKWRLVNRKLRNGWVETTKAEVLRGLEELLRMKLFEKVPVSEAVSEAVRELSRKAKRESEKFAMDLGEVDLNCLPPCMREILSELQRGMNIPHTARFAITSFLLNIGMTVDEIIALFKSAPDFDDEKTRYQVEHIAGERGKGAEYTSPSCDTMRTYSNCVADCRVSHPLIYYKKCKSKSLEHHHHHH”, the protein production result is recorded as “not failed”.

Regarding “MIDVIQSLGIDLHFRQEIEQTLHMIYKEGLQFNGDLHEIALRFRLLRQEGHYVQEIIFKNILDKKGGFKDVVKNDVKGLTELFEASELRVEGEETLDGAREFTYSRLNELCSGRESHQKQEIMKSLAQPRHKTVRGLTSKRFTSMIKIAGQEDPEWLQSLLRVAEIDSIRLKSLTQGEMSQTFKWWTELGLEKDVEKARSQPLKWHTWSMKILQDPTLTEQRLDLTKPISLVYVIDDIFDVYGELEELTIFTRVVERWDHKGLKTLPKYMRVCFEALDMITTEISMKIYKSHGWNPTYALRQSWASLCKAFLVEAKWFNSGYLPTTEEYMKNGVVSSGVHLVMLHAYILLGEELTKEKVELIESNPGIVSSAATILRLWDDLGSAKDENQDGTDGSYVECYLNEYKGSTVDEARTHVAQKISRAWKRLNRECLNPCPFSRSFSKACLNIARTVPLMYSYDDDQRLPDEYLKSLM”, the protein production result is “failed”.

As for “MGICVVIPAFNAALTIEAVVRETLEQGLPLVVVDDGSEDGTADCVRGLPVNLVSHGRNRGKGAALKTGFAWALEYGFSGVITLDSDGQHDPTAITLLAETAKNDGWDILVASRFAQFNQMAGLRRHWNRFGAWCMKKRTGFQIDDSQSGFRYYSARLLRMVSLGKDGYDLEMEILMKAWQAGCTIGSVPVPARVADGRATSHFRPVRDTWNICMTFLRYMLEHHHHHH”, the protein production result is “failed”.

For the sequence “MEHTWMMKYFAEFFGTIILVVFGNGAVANSVLTKTGGNSHDGQANGGWLLIAFSFGFGVMLPAMMFGSISGNHLNPAVTLAQACAGAFPWNQVLPYILVQMLGAIVGQLLLVAVYWPFIAKTSSDDAVFASFSTGDIADSKLNGFITEFVGTAILLFVAVGLYRGMFFKQSEDIANIGVGFLITALVMAVGGPTGPALNPARDLGPRIVYALCPLPHKGSAHWDYGWIPVVAPIAGGICGALLYKLAFGL”, the protein production result is given as “failed”.

With “MNSFAEKLMVGATAPSASVELPLGDRVRCVLVHEFLSASECEALIEATEQCGFASAGSDYPSSYRDNDRIVADDPAMAGRLFERLKHCASRMPKLGTVIDEDGWRPVGINERLRFCRYRPGTQFRAHQDGVHHRQRQQSRLTFMIYLNDDAFSGGETLFFEGRSAAMSNRDSTLRLRPRKGSLIVFDHTLWHAGALVDAGQKYVMRSDLMYEPQQSLQVDGPFQPGHRGYVWALADLGDRGFASAGRDATIRLWDHEGRCLGQLDGHTQSILGLVDVAPGELVSHSRDRTVRHWSLATGKSTLVGTSDSAVLSSARLGADRLVTGAADGCLTVWNLATGAADRRQAHACWVWAIAPTGDGSFASASEDGTVRLWQPEERDCVQVLDLGRPLRMLASWIDADGSVTLAVGDLDGAVHLLATEPRLALLDCLAAHDGPVRRVRFEARHMLLTCGEDGLVRRWNLPSRQGAIIGSHDNFATDVLPTRAGGWISCGYDGRILVHGDKG”, the protein production entry is listed as “failed”.

Turning to “STGNAGEWCLMESDPGVFTELIKGFGCRGAQVEEIWSLEPENFEKLKPVHGLIFLFKWQPGEEPAGSVVQDSRLDTIFFAKQVINNACATQAIVSVLLNCTHQDVHLGETLSEFKEFSQSFDAAMKGLALSNSDVIRQVHNSFARQQMFEFDTKTSAKEEDAFHFVSYVPVNGRLYELDGLREGPIDLGACNQDDWISAVRPVIEKRIQKYSEGEIRFNLMAIVSDRKMIYEQKIAELQRQLAEEPMDTDQGNSMLSAIQSEVAKNQMLIEEEVQKLKRYKIENIRRKHNYLPFIMELLKTLAEHQQLIPLVEKAKEKQNAKKAQETK”, the protein production entry is recorded as “not failed”.

Take “MSLEAGAGAPLARYAAWRRAGDFIFLSGIIPVNPLTGTIVNGFQDVPEPVRELLGATGEFSTDAKQGPILAQSWYVLESIRRTVASAGGQMSDVIKLVQYFRNLDHFPYYSRVRKLFYPDQPPVSTVVQVSEMLPDATVLIEVEATVWLPPSFNSEAEGHHHHHH”: the protein production entry is given as “not failed”.

In the case of “MRLSPAPLKLSRTPALLALALPLAAALAFSDETLDKVPKSEGYCSRILRAQGTRREGYTEFSLRVEGDPDFYKPGTSYRVTLSAAPPSYFRGFTLIALRENREGDKEEDHAGTFQIIDEEETQFMSNCPVAVTESTPRRRTRIQVFWIAPPAGTGCVILKASIVQKRIIYFQDEGSLTKKLCEQDSTFDGVTDKPILDCCACGTAKYRLTFYGNWSEKTHPKDYPRRANHWSAIIGGSHSKNYVLWEYGGYASEGVKQVAELGSPVKMEEEIRQQSDEVLTVIKAKAQWPAWQPLNVRAAPSAEFSVDRTRHLMSFLTMMGPSPDWNVGLSAEDLCTKECGWVQKVVQDLIPWDAGTDSGVTYESPNKPTIPQEKIRPLTSLDHPQSPFYDPEGGSITQVARVVIERIARKGEQCNIVPDNVDDIVADLAPEEKDEDDTPETCIYSNWSPWSACSSSTCDKGKRMRQRMLKAQLDLSVPCPDTQDFQPCMGPGCSDEDGSTCTMSEWITWSPCSISCGMGMRSRERYVKQFPEDGSVCTLPTEETEKCTVNEECSPSSCLMTEWGEWDECSATCGMGMKKRHRMIKMNPADGSMCKAETSQAEKCMMPECHTIPCLLSPWSEWSDCSVTCGKGMRTRQRMLKSLAELGDCNEDLEQVEKCMLPECPIDCELTEWSQWSECNKSCGKGHVIRTRMIQMEPQFGGAPCPETVQRKKCRIRKCLRNPSIQKLRWREARESRRSEQLKEESEGEQFPGCRMRPWTAWSECTKLCGGGIQERYMTVKKRFKSSQFTSCKDKKEIRACNVHPC”, the protein production result was “failed”.

As to “MAKNQWNELLLEQVRQLPMASSKEHVQLRLNLLIVEASKQKKTIPTEFELIFQAYQLSRSGKLIDSISVFFDAINFSQQNQQEFLICFCHYNIGTLYGMLGNYFYAQKFLAKAEKMQQFCDGYITGIIKNNIGDIFRQIGNFNEALIYLTQAAELLSQHGPKTAAALSYFNIAEIKAKQFLFTEANELLENLYQDIKNEPRYLGFYYKIKAEIASHSGEFEQADKLHLLSIENMQISEHDYYYAEMILEYCHFLTSCLQYKKLDQFIALGLAVAKKIESDKLIDGFNDIILLRIKDIDDINIREKHYQTLTSSLLNSRRELLKREGDYLQQLYRLNVAKLNLSTMKSLSDNLAVINKVGHYINTSSDIKNALPQIQQDLASLFQTDTLALGFYNSEQDQITIHYLDNNLPAQTPYITDCKSEATYMSYCIKSNSAFYFNHMNSEQKVAMLGDRCDSKVQFKSAMFSPITINGEVKGVFTIQARESYQYQTFHFELFSQLISYISIALENQYNRQQLLHLSQTDHLTQIWNRKSLEAHFNQLKQQQNQEYTGIMIDIDHYKEYNDTYGHIAGDEVLIQVSRLIKQGFHSLETQVYRYGGDEFFVLIPSIKPEKIRQKLDKLLIEVKKLLIPHKASTCSCYLSISVGIGYNKDPENQLSLNSLVNTADRALYQAKENGRNCYFELAHIKETMY”, the protein production entry is “failed”.

For the origin of these results see a protein production outcome set (Wang et al. 2014).
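Also: failed if final PepcDB status was selected cloned or expressed and not failed if soluble or beyond.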
